Target: mLRPIV-HA, stably expressed in SH-SY5Y
Test: co-IP + ELISA; SH-SY5Y cells stably expressing mLRPIV-HA incubated with Aβ42 and 1 to 200 nM DKK1 or DKK3; mLRPIV-HA precipitated with anti-HA affinity gel; Aβ42 in the eluate by ELISA

Sequence of DKK3-Flag (Q9UBP4 22-350): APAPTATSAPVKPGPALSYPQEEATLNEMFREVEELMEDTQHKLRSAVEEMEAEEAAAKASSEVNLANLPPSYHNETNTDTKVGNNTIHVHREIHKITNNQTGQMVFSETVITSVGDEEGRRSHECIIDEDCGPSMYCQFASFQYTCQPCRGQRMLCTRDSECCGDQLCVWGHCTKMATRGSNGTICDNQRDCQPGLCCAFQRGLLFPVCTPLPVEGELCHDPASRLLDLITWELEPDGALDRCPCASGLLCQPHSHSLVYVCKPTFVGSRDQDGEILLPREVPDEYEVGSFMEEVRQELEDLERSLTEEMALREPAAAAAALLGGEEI

percent reduction of Aβ42 binding to mLRPIV at 20 nM DKK3: 60%
Substance: DKK3-Flag (from UniProt Q9UBP4 22-350) (ligand)

Reference: article PMC12594171, “DKK3-LRP1 complex and a chemical inhibitor regulate Aβ clearance in models of Alzheimer’s disease” (Science Advances, 2025)
